The values that follow come from patent US7183387 (Genentech, dated 2007).

What all share (assay): ELISA, IgG:IgE hexamers on receptor-GST
A general note: ELISA stands for enzyme-linked immunosorbent assay.

In assay [1] the target is T1, human FcγRIIB α subunit extracellular domain-6His-GST fusion (human, UniProt P31994 43-217).
T1 construct: not shown: glutathione S-transferase (GST)
T1 sequence: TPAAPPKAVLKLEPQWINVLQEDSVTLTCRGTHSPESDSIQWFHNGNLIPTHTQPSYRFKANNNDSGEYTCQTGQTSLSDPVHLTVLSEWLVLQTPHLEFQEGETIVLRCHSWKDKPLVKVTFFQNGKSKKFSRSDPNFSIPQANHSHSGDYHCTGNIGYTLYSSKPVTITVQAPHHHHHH

For assay [2], the target named is T2, human FcγRIIIA-F158 α subunit extracellular domain-6His-GST fusion (human, UniProt P08637 17-208).
T2 construct: also called FcγRIIIA-Phe158; not shown: glutathione S-transferase (GST)

Assay [3] addresses T3, human FcγRIIA-R131 α subunit extracellular domain-6His-GST fusion (human, UniProt P12318 34-217).
T3 construct: also called FcγRIIA-Arg131; not shown: glutathione S-transferase (GST)
T3 sequence: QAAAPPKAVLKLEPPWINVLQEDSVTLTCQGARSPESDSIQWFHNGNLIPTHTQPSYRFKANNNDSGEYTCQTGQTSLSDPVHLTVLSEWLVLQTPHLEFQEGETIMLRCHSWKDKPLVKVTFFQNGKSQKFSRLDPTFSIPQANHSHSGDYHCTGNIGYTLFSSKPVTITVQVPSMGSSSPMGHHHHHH

T2 sequence (P08637 other isoform, or with tags, fused parts or gaps, form in doubt): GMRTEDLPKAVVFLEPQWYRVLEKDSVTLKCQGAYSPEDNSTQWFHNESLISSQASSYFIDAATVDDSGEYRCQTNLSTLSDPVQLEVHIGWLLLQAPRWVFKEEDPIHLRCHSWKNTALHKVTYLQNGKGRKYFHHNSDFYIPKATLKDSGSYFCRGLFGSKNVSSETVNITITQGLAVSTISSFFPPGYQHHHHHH

B1: E27 IgG1 variant H268(281)N (antibody)
heavy: not shown
light: DIQLTQSPSSLSASVGDRVTITCRASKPVDGEGDSYLNWYQQKPGKAPKLLIYAASYLESGVPSRFSGSGSGTDFTLTISSLQPEDFATYYCQQSHEDPYTFGQGTKVEIKRTVAAPSVFIFPPSDEQLKSGTASVVCLLNNFYPREAKVQWKVDNALQSGNSQESVTEQDSKDSTYSLSSTLTLSKADYEKHKVYACEVTHQGLSSPVTKSFNRGEC
notes: also called IG2 84
With B1, the “ratio to native IgG1” value is 1.41 in assay [1], 0.56 in assay [2] and 1.33 in assay [3].

B2: E27 IgG1 variant K290(307)S (antibody)
heavy: not shown
light: B1 light
notes: also called IG2 75
As for B2, the “ratio to native IgG1” value stood at 1.34 in assay [1], 1.26 in assay [2] and 1.27 in assay [3].

B3: E27 IgG1 variant K322(341)E (antibody)
heavy: not shown
light: B1 light
For B3, the “ratio to native IgG1” value in assay [1] worked out at 1.34; in assay [2] it was 0.81; in assay [3], 1.38.

B4: E27 IgG1 variant H268(281)Y (antibody)
heavy: not shown
light: B1 light
notes: also called IG2 87
For the molecule B4, the “ratio to native IgG1” value was 1.29 in assay [1], 0.76 in assay [2] and 1.19 in assay [3].

B5: E27 IgG1 variant K320(339)Q (antibody)
heavy: not shown
light: B1 light
notes: also called IG2 204
On to B5, for which the figures for the “ratio to native IgG1” value in assay [1], in assay [2] and in assay [3] were 1.12, 1.17 and 1.23, respectively.

B6: E27 IgG1 variant K290(307)Q (antibody)
heavy: not shown
light: B1 light
notes: also called IG2 73
For the molecule B6, the “ratio to native IgG1” value in assay [1] was found to be 1.26; in assay [2], 1.4; in assay [3], 1.17.

B7: E27 IgG1 variant H268(281)S (antibody)
heavy: not shown
light: B1 light
notes: also called IG2 85
For B7, the “ratio to native IgG1” value in assay [1] was 1.38; in assay [2], 0.81; in assay [3] it was 1.35.

B8: E27 IgG1 variant K320(339)E (antibody)
heavy: not shown
light: B1 light
notes: also called IG2 205
With B8, the “ratio to native IgG1” value worked out at 1.34 in assay [1], 1.12 in assay [2] and 1.29 in assay [3].

B9: E27 IgG1 variant K322(341)R (antibody)
heavy: not shown
light: B1 light
notes: also called IG2 155
On to B9, for which the results for the “ratio to native IgG1” value in assay [1], in assay [2] and in assay [3] were 0.87, 0.92 and 0.87, respectively.

B10: E27 IgG1 variant K320(339)M (antibody)
heavy: not shown
light: B1 light
notes: also called IG2 202
As to B10, the “ratio to native IgG1” value in assay [1] came out at 1.4; in assay [2], 1.27; in assay [3] it was 1.34.

B11: E27 IgG1 variant K290(307)G (antibody)
heavy: not shown
light: B1 light
notes: also called IG2 177
In the case of B11, the “ratio to native IgG1” value in assay [1] was 1.21; in assay [2], 1.23; in assay [3], 1.07.

B12: E27 IgG1 variant K322(341)Q (antibody)
heavy: not shown
light: B1 light
Turning to B12, the results for the “ratio to native IgG1” value in assay [1], in assay [2] and in assay [3] were 0.92, 0.78 and 0.87, respectively.

B13: E27 IgG1 variant K322(341)N (antibody)
heavy: not shown
light: B1 light
notes: also called IG2 207
Turning to B13, the results for the “ratio to native IgG1” value in assay [1], in assay [2] and in assay [3] were 0.36, 0.04 and 0.57, respectively.

B14: E27 IgG1 variant K274(287)Q (antibody)
heavy: not shown
light: B1 light
As for B14, the “ratio to native IgG1” value amounted to 0.94 in assay [1], 0.62 in assay [2] and 0.86 in assay [3].
